Results: article PMC11432007

Target: GABAA receptor β2 subunit extracellular domain fragment Gln25–Gly243 (human (abstract, Figure 1); 'bovine gene' in the methods) (UniProt P47870)
Assay: negative staining electron microscopy; single refolded subunit fragment, dialysed into 10 mM glycine pH 10.3; 2% uranyl acetate on carbon-coated copper grid, 120 kV TEM; 2D classification in Relion from manually picked particles of 20 micrographs

GABAA receptor β2 subunit extracellular domain fragment Gln25–Gly243 (from UniProt P47870 25-243) (domain or fragment)
stoichiometry N: 5
